Laboratory results from article PMC10671530, “Linking New Alleles at the Oscillator Loci to Flowering and Expansion of Asian Rice”.

B1: OsPRR1-p2 (EE probe) (dsDNA)
DNA 1: GTTTCGTTTATTACACCGCCCCGG
DNA 2: CCGGGGCGGTGTAATAAACGAAAC
B2: OsPRR1-p1 (EE probe) (dsDNA)
DNA 1: GTAGGGGGAGGAAAATATCCTGTGCCAGTAG
DNA 2: CTACTGGCACAGGATATTTTCCTCCCCCTAC
B3: OsPRR1-p3 (EE probe) (dsDNA)
DNA 1: CATCTGGCTTAACCACGCCCGGCTCTC
DNA 2: GAGAGCCGGGCGTGGTTAAGCCAGATG
B4: probe 9 (OsPRR1_a, 12-nt deletion) (dsDNA)
DNA 1: CCAACGCCGCCGCCGC
DNA 2: GCGGCGGCGGCGTTGG

molecular target: OsCCA1 DNA-binding (R/MYB) domain (Oryza sativa (cDNA of Heidao), UniProt A0A0P0XBU0 1-138); experiment: EMSA; EMSA: 10 uL with 2 uL 5x binding buffer (Invitrogen), 1.3 ug protein, 20 pmol probe, 23 C, 20 min; 10% native PAGE, 100 V about 70 min; gel stained for DNA and; details: protein: recombinant; (pCold vector, Ni Sepharose)
Sequence (A0A0P0XBU0 1-138): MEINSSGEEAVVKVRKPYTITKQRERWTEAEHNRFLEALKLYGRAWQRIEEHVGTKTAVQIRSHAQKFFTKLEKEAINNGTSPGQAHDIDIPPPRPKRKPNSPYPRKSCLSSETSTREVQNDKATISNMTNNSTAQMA

Binder | binding result
B1 | binds
B2 | binds
B3 | binds
B4 | no binding
